This is an account of results in patent US20130310442.

The target of data set [1] is biotinylated human D-SDF-1 (Homo sapiens) (UniProt P48061). Description: pulldown. The following applies: single Kd stated after naming 193-C2-002 and 193-G2-012.
Data set [2] has as its target human SDF-1alpha (CXCL12) (Homo sapiens) (UniProt P48061). Description: SPR. Particulars: L-RNA; 5'-40 kDa PEG; Biacore 2000, 37 C. On the technique in general: In SPR one partner is held on a chip, and binding of the other changes the refractive index at the surface.

One may read the Kd as the constant that tells how readily two partners part at equilibrium. Read a high Kd as lower affinity.

Chain of human SDF-1alpha (CXCL12) (Homo sapiens) (P48061 22-89): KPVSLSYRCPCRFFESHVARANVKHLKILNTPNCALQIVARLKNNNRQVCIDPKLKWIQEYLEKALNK
Chain of biotinylated human D-SDF-1 (Homo sapiens) (P48061 22-92): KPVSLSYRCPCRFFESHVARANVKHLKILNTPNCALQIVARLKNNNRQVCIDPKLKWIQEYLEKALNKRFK

In the case of “GCGUGGUGUGAUCUAGAUGUAGUGGCUGAUCCUAGUCAGGUACGC [193-C2-002 (D)]”, the Kd in data set [1] was determined as 0.3 nM.

Sequence “GCGUGGUGUGAUCUAGAUGUAUUGGCUGAUCCUAGUCAGGUACGC [NOX-A12 (193-G2-012-5'-PEG)]” registered a dissociation constant (Kd) in data set [2] of 0.2 nM.
